Assays:
[1] = target: sFcεRIα W87D (immobilised for SPR) (human) (UniProt P12319); assay: SPR
[2] = target: the molecule itself; assay: crystal structure

Row | dH [1] | Molecule | stoichiometry N [2]
1 | -15.2 kcal/mol | Fcε3-4 (sub-fragment of IgE-Fc lacking the Cε2 domains) (from UniProt P01854 211-427) (domain or fragment) | –
2 | – | human IgE-Fc (dimer of Cε2-Cε3-Cε4 domains) (domain or fragment, N-linked high-mannose carbohydrate at Asn394) CSRDFTPPTVKILQSSCDGGGHFPPTIQLLCLVSGYTPGTINITWLEDGQVMDVDLSTASTTQEGELASTQSELTLSQKHWLSDRTYTCQVTYQGHTFEDSTKKCADSNPRGVSAYLSRPSPFDLFIRKSPTITCLVVDLAPSKGTVNLTWSRASGKPVNHSTRKEEKQRNGTLTVTSTLPVGTRDWIEGETYQCRVTHPHLPRALMRSTTKTSGPRAAPEVYAFATPEWPGSRDKRTLACLIQNFMPEDISVQWLHNEVQLPDARHSTTQPRKTKGSGFFVFSRLEVTRAEWEQKDEFICRAVHEAASPSQTVQRAVSVNPGL | 2
